Experimental data from article PMC11648230 (2024).

Target: Aquifex aeolicus TsaD2B^mut2 tetramer (Aquifex aeolicus | Thermotoga maritima, UniProt O66986 1-335)
Test: ITC

Chain of Aquifex aeolicus TsaD2B^mut2 tetramer (O66986 whole entry, chain 1 of 2): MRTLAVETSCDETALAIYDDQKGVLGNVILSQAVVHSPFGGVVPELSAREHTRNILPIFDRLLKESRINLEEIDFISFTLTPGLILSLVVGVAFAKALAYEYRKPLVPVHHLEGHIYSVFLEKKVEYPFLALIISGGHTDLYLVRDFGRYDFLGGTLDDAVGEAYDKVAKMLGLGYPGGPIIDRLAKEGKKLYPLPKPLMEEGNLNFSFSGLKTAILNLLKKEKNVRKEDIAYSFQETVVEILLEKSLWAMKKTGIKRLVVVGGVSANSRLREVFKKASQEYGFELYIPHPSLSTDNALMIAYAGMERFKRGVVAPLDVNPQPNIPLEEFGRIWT
Chain of Aquifex aeolicus TsaD2B^mut2 tetramer (chain, as listed by the source, chain 2 of 2): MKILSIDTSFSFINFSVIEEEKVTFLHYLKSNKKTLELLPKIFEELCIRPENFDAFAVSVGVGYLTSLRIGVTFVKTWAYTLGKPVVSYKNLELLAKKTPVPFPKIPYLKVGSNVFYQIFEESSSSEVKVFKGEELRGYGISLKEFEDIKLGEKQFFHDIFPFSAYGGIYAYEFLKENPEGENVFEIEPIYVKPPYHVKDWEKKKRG

B1: Aquifex aeolicus TsaE (enzyme)
chain: MELLKEVILESEEDTYKLAEEIAQLLKGSEVICLRGTLGAGKTTFVKALAKALKVKNPSAVRSPTFTLVNEYETDKGKLIHIDLYRVPDFDYSEFIGEGILAVEWEERDKPCDIILEIEILDENKRKVRIYRK
modifications: T. maritima TsaB C-tail WEKKKRG (200-206) grafted after residue 200 of A. aeolicus TsaB (new positions 201-207); C-terminal 6His tag on TsaB omitted; TsaD carries a bound divalent metal (Fe2+ or Zn2+); Cys10 of TsaD seen oxidised (CSO) in the crystal; ITC with TsaE done with AMPPNP/Mg2+
  Kd: 2.87 µM
